Our source for the protein stability index values is the supplement of paper PMC10567573.

The data set in a line: protein stability index of a GFP-peptide fusion (GPS, HEK-293T) (PSI 1-6); higher = more stable. Conditions: c terminus: native.
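Also: lentivirally expressed fusion library, cells FACS-sorted into six equal-sized GFP/DsRed ratio bins, PSI computed from sequencing read fractions per bin weighted by bin number.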

For the protein CQPISFSGFGAEDDDLGGLGLGPW [POLD2 addW], for the setting “parent: NP_006221.1”, the protein stability index was found to be 2.02.

Take LPALFTDLYSQEITAEEAREALPW [SNF8 addW]: the protein stability index (parent: NP_009172.2) worked out at 3.4.

EQRNSRWNTVLRAVKAKTHHLEPW [TRPA1 addW]: under “parent: NP_015628.1”, the protein stability index was found to be 3.58.

As to HSLRAVSTDPPHHDHHDEFCLMPW [BEX2 addW], the protein stability index (parent: NP_116010.1) was found to be 3.48.

Regarding DGWIRVSSDNVADLHEKYSGSTPW [PSMB5 addW], the protein stability index (parent: NP_002788.1) stood at 3.46.
